Results as given in paper doi:10.1101/2022.04.29.489987 (bioRxiv, 2022).

Tests used:
TRIB2(53–343) [1] = target: T1, TRIB2(53–343) (human, UniProt Q92519 53-343); experiment: ITC
T1 sequence (looked up): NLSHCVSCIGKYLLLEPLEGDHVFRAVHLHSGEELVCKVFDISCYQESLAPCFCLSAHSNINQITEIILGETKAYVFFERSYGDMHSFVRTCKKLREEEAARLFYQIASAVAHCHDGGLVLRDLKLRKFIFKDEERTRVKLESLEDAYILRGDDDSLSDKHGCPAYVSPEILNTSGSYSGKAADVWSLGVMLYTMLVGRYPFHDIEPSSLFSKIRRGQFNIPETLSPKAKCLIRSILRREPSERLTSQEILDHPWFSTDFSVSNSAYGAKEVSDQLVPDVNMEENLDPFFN

[2] = target: TRIB2-Nb4.103 complex (human) (UniProt Q92519); experiment: ITC
TRIB2(2–343) = target: T2, TRIB2(2–343) (human, UniProt Q92519 2-343); experiment: ELISA
T2 sequence (looked up): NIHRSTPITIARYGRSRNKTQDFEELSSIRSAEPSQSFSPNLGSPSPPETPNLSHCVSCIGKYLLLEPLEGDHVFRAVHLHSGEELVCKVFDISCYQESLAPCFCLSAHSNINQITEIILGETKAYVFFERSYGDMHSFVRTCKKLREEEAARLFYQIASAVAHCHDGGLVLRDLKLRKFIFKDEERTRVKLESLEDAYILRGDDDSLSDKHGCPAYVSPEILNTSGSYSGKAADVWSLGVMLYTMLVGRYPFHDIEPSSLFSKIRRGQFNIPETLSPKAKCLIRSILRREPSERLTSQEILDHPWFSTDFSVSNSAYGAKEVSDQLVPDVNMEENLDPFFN

TRIB2(53–343) [3] = target: T1, TRIB2(53–343); experiment: SEC-SAXS
TRIB2(53–343) [4] = target: T1, TRIB2(53–343); experiment: SEC-SAXS; remark: listed apart in the source

Molecule	Kd (TRIB2(53–343) [1]) [nM]	stoichiometry N (TRIB2(53–343) [1])	binding result (TRIB2(2–343))	further results
MBP-C/EBPa (from UniProt P49715 1-358) (domain or fragment)	9000			fold decrease in affinity against TRIB2 alone [2]: 3 fold
Nb4.105 (VHH) VHH: QVQLQESGGGLVQAGGSLRLSCAASGNIFDNDPMGWYRQAPGKERELVAAIAYGATTYYADSVKGRFTISRDNAKNTVYLQMNSLKPEDTAVYYCAAYGIDDSPKVYSLRYWGQGTQVTVSS	54	1		
biotinylated Nb4.105 (Nb-Avi) (VHH, biotin on the Avi-tag) VHH: QVQLQESGGGLVQAGGSLRLSCAASGNIFDNDPMGWYRQAPGKERELVAAIAYGATTYYADSVKGRFTISRDNAKNTVYLQMNSLKPEDTAVYYCAAYGIDDSPKVYSLRYWGQGTQVTVSS			binds	
Nb4.103 (VHH) VHH: QVQLQESGGGLVQAGGSLRLSCAASGNISAQAYMGWYRQAPGKERELVAGISYGATTYYADSVKGRFTISRDNAKNTVYLQMNSLKPEDTAVYYCAVISAGGGESIGYHFYWGQGTQVTVSS	27	~0.5		stoichiometry N (TRIB2(53–343) [3]): 2 TRIB2 per nanobody
biotinylated Nb4.103 (Nb-Avi) (VHH, biotin on the Avi-tag) VHH: QVQLQESGGGLVQAGGSLRLSCAASGNISAQAYMGWYRQAPGKERELVAGISYGATTYYADSVKGRFTISRDNAKNTVYLQMNSLKPEDTAVYYCAVISAGGGESIGYHFYWGQGTQVTVSS			binds	
biotinylated Nb4.101 (Nb-Avi) (VHH, biotin on the Avi-tag) VHH: QVQLQESGGGLVQAGGSLRLSCAASGNISDYLYMGWYRQAPGKERELVAGISYGANTYYADSVKGRFTISRDNAKNTVYLQMNSLKPEDTAVYYCAVFDASRTPILTYWGQGTQVTVSS			binds	
Nb4.101 (VHH) VHH: QVQLQESGGGLVQAGGSLRLSCAASGNISDYLYMGWYRQAPGKERELVAGISYGANTYYADSVKGRFTISRDNAKNTVYLQMNSLKPEDTAVYYCAVFDASRTPILTYWGQGTQVTVSS	57	~0.5		stoichiometry N (TRIB2(53–343) [4]): 1 TRIB2 per nanobody
